In patent US8642555B2, “Prodrugs” (KTB Tumorforschungsgesellschaft mbH, priority 2009, dated 2014):
Numbered stars: 1 amine (or outer) side, 2 acyl side, 3 side chain; on linkers, the order of the positions; unused ones are H or OH. Square brackets hold non-standard residues; d marks the D form. Peptide text beside a SMILES is read from it. * marks the point of attachment. ξ: configuration not given here. X1 = COc1cccc2c1C(=O)c1c(O)c3c(c(O)c1C2=O)C[C@@](O)(C(=O)CO)CC3O[C@H]1C[C@@H](N*)C(O)[C@H](C)O1; Hexanoyl(6-maleimido) = O=C1C=CC(=O)N1CCCCCC(=O)*; PABC = O=C(OCc1ccc(N[*:1])cc1)[*:2]; ξY = NC(Cc1ccc(O)cc1)C(=O)O; ξR = N=C(N)NCCCC(N)C(=O)O; ξL = CC(C)CC(N)C(=O)O; ξS = NC(CO)C(=O)O

How the values were obtained:
[1] = cited from earlier work
[2] = in vivo; cited from earlier work

| Molecule | water-solubility (Water-solubility) | also measured |
| --- | --- | --- |
| COc1cccc2c1C(=O)c1c(O)c3c(c(O)c1C2=O)CC(O)(C(=O)CO)CC3OC1CC(NC(=O)C(CCCNC(=N)N)NC(=O)C(N)CO)C(O)C(C)O1 (stereo not drawn) [Ser-Arg-DOXO] |  | half-life of liberation of free doxorubicin from the dipeptide [1]: > 48 h |
| COc1cccc2c1C(=O)c1c(O)c3c(c(O)c1C2=O)C[C@@](O)(C(=O)CO)CC3O[C@H]1C[C@@H](NC(=O)OCc2ccc(NC(=O)C(CC(C)C)NC(=O)C(CO)NC(=O)C(Cc3ccc(O)cc3)NC(=O)C(Cc3ccc(O)cc3)NC(=O)C(CO)NC(=O)C(CO)NC(=O)C(CCCNC(=N)N)NC(=O)CCCCCN3C(=O)C=CC3=O)cc2)C(O)[C@H](C)O1 (stereo partly drawn) [compound 6, EMC-Arg-Ser-Ser-Tyr-Tyr-Ser-Leu-PABC-DOXO] ({Hexanoyl(6-maleimido)}-[ξR][ξS][ξS][ξY][ξY][ξS][ξL][PABC]-X1) | excellent water-solubility |  |
| CC(=O)O[C@H]1C(=O)[C@@]2(C)C([C@H](OC(=O)c3ccccc3)[C@]3(O)C[C@H](OC(=O)[C@H](OC(=O)OCc4ccc(NC(=O)C(CC(C)C)NC(=O)C(CO)NC(=O)C(Cc5ccc(O)cc5)NC(=O)C(Cc5ccc(O)cc5)NC(=O)C(CO)NC(=O)C(CO)NC(=O)C(CCCNC(=N)N)NC(=O)CCCCCN5C(=O)C=CC5=O)cc4)[C@@H](NC(=O)c4ccccc4)c4ccccc4)C(C)=C1C3(C)C)[C@]1(OC(C)=O)CO[C@@H]1C[C@@H]2O (stereo partly drawn) [compound 10, EMC-Arg-Ser-Ser-Tyr-Tyr-Ser-Leu-PABC-Paclitaxel] | excellent water-solubility |  |
| albumin |  | half-life in the systemic circulation [2]: up to 19 days |
